According to patent US20260256741A1, “ANTICANCER MALEIMIDE DERIVATIVES FOR USE WITH IMMUNE CHECKPOINT BLOCKADE” (BROWN UNIVERSITY, priority 2022, published 2026):

Assays:
HT-29 CRC cells = assay: Western blot analysis of HT-29 CRC cells; format: cell-based, human; conditions: 250 ng/mL IFN-γ
Protocol: (§1) Recombinant Human TNF-α (Cat #300-01A, PeproTech, Rocky Hill, NJ, USA) and Recombinant Human IFN-γ (Cat #300-02, Peprotech, Rocky Hill, NJ, USA) were purchased for use in western blot analysis while rhTRAIL was generated in-house. Kim et al., J Biol Chem., 279(38):40044-52 (2004).
(§2) Cells were plated in a 6-well plate and incubated overnight before the spent media was replaced with drugged media. Drug treatment lasted for indicated durations. Protein was extracted using radioimmunoprecipitation (RIPA) assay buffer (Cat #R0278, Sigma-Aldrich, St. Louis, MO) containing cOmplete™, Mini, EDTA-free Protease Inhibitor Cocktail (Cat #4693159001, Roche, Basel, Switzerland) from sub-confluent cells. Denaturing sample buffer was added, samples were boiled at 95 degrees for 10 minutes, and an equal amount of protein lysate was electrophoresed through NuPAGE™ 4 to 12%, Bis-Tris, 1.5 mm, Mini Protein Gels (Invitrogen, Waltham, MA) then transferred to PVDF membranes. The PVDF membrane was blocked with 5% non-fat milk (Sigma-Aldrich, St. Louis, MO) in 1×TTBS. Primary antibodies were incubated with the transferred PVDF membrane in blocking buffer at 4° C. overnight. Secondary antibodies used included Goat anti-Rabbit IgG (H+L) Secondary Antibody, HRP (Cat #31460, Invitrogen, Waltham, MA), and Goat anti-Mouse IgG (H+L) Secondary Antibody, HRP (Cat #31430, Invitrogen, Waltham, MA). Signal was detected using Pierce™ ECL Western Blotting Substrate (Cat #32106, Thermo Scientific, Waltham, MA, USA) and a Syngene Imaging System (RRID: SCR_015770).

HCT-116 CRC cells = assay: Western blot analysis of HCT-116 CRC cells; format: cell-based, human; conditions: 250 ng/mL IFN-γ
Protocol: as §1, §2

B1: IFN-γ: Recombinant Human IFN-γ (Peprotech) used to treat tumor cells for western blot (protein, UniProt P01579 24-161, looked up)
Interferon gamma: QDPYVKEAENLKKYFNAGHSDVADNGTLFLGILKNWKEESDRKIMQSQIVSFYFKLFKNFKDDQSIQKSVETIKEDMNVKFFNSNKKKRDDFEKLTNYSVTDLNVQRKAIHELIQVMAELSPAAKTGKRKRSQMLFRG
For B1, the “gasdermin B expression” value (HT-29 CRC cells) was “increase in gasdermin B expression” and the “gasdermin B expression” value (HCT-116 CRC cells) was “increase in gasdermin B expression”.
